Here are results for one molecule from doi:10.1101/2022.09.26.507364 (bioRxiv, 2022).

The target of this test is T1, Long neurotoxin 1 (3L21_OXYSC) from O. scutellatus scutellatus (coastal taipan), recombinant long 3FTX (Oxyuranus scutellatus scutellatus).
T1 chain: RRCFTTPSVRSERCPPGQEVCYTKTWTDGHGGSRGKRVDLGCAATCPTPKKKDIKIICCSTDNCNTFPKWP
The experiment in a line: SPR. Background: In SPR one partner is held on a chip, and binding of the other changes the refractive index at the surface.

B1: Centi-3FTX-D09 (antibody, V domains shown)
VH: EVQLVESGGGFVQPGGSLRLSCAASGFTFSNFDMHWVRQSPGKGLEWVSGLDHSGGAHYAGSVKGRFTISREDAKNSLDLQMNNLRVDDTAVYFCVRGTLYHYTSGSYYSDAFDIWGQGTLVTVSS
VL: EIVLTQSPSSLSASVGDRVTITCQASQDISNYLNWYQQKPGKAPKLLIYAASSLESGVPSRFSGSGSGTDFTLTISSQQPEDFATYYCQQANSFPYTFGQGTKVEIK
B1: the dissociation constant (Kd) (as a rule, the equilibrium constant for the complex coming apart) amounted to 0.49 nM.
